Among the data in paper PMC5095173, “Disulfide-activated protein kinase G Iα regulates cardiac diastolic relaxation and fine-tunes the Frank–Starling response” (Nature Communications, 2016) are fold change of Kd against WT PKGIα disulfide dimer, stoichiometry N and log2 fold change in abundance of the PLN pSer16 phosphopeptide (thiophosphorylation in rat heart homogenate), disulfide-activated PKGIα M438G versus basal PKGIα C42S/M438G control (log2 fold change) values, retold here.

In experiment [1] the target is C42S PKGIα (human). Put plainly: ITC; PLN (1–23) (700 μM) titrated into the cell containing WT disulfide PKGIα or the C42S mutant (70 μM); 25 °C; 50 mM sodium phosphate buffer pH 7.4, 100 mM NaCl; no cyclic nucleotide. In general terms: In ITC the heat of successive injections is recorded.
For experiment [2], the target named is PKGIα M438G (analogue-sensitive mutant), disulfide dimer (human). Put plainly: cross-linking; intermolecular Cys42 disulfide of purified recombinant PKGIα (lipoic acid or air oxidation) seen as dimer by SDS-PAGE.
In experiment [3] the target is Cardiac phospholamban (rat heart homogenate) (rat (endogenous in rat left ventricle)) (UniProt P61016).
Experiment [4] addresses PKGIα (WT mouse heart) (mouse (endogenous in mouse heart)) (UniProt P0C605). Kind of experiment: cross-linking; intermolecular disulfide dimer of PKGIα in perfused mouse hearts (0 or 5 mm Hg EDP), homogenised with 100 mM maleimide, SDS-PAGE without reducing agent and immunoblot.

PKGIα (WT mouse heart), sequence (P0C605 2-671): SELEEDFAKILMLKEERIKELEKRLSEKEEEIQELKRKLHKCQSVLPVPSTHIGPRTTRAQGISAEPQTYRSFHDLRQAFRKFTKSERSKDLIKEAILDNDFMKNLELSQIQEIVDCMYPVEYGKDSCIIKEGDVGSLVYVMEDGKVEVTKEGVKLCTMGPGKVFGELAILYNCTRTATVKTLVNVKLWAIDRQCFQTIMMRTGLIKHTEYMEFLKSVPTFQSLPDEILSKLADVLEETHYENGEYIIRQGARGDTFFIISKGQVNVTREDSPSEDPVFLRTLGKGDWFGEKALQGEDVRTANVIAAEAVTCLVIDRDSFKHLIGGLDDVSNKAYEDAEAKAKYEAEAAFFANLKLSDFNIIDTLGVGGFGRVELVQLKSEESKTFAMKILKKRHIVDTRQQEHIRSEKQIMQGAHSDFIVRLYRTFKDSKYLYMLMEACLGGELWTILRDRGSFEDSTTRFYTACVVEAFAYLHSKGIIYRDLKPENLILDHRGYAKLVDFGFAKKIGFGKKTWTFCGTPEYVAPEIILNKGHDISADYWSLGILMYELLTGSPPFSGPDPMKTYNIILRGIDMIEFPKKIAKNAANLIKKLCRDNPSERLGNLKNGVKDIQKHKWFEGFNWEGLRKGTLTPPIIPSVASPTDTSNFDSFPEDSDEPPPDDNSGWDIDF
N-terminally acetylated peptide of the N-terminal cytoplasmic domain of human phospholamban, PLN (amino acid 1-23), sequence (P26678 1-23): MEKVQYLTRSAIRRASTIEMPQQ
Cardiac phospholamban (rat heart homogenate) (rat (endogenous in rat left ventricle)), sequence (P61016 whole entry, the tested form may be a part): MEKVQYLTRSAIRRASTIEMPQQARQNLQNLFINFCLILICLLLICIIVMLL

In experiment [1], “N-terminally acetylated peptide of the N-terminal cytoplasmic domain of human phospholamban, PLN (amino acid 1-23) (from UniProt P26678 1-23)” displayed a fold change of Kd against WT PKGIα disulfide dimer of more than 5 fold. As usually defined, the stoichiometry N is a count of units in the complex or per binding partner. With “PKGIα M438G (analogue-sensitive mutant), disulfide dimer (enzyme)”, the stoichiometry N in experiment [2] stood at 2. The log2 fold change in abundance of the PLN pSer16 phosphopeptide (thiophosphorylation in rat heart homogenate), disulfide-activated PKGIα M438G versus basal PKGIα C42S/M438G control (log2 fold change) in experiment [3] came to 0.41. Regarding “PKGIα (WT mouse heart) (from UniProt P0C605 1-671) (enzyme)”, the stoichiometry N in experiment [4] worked out at 2.
